According to patent publication US20020147129A1:
Where no end group is shown, it is not given here. [ ]: non-standard residue; d: D form. Nle = CCCC[C@H](N)C(=O)O

Experiments:
[1] = molecular target: embryonic chicken AT4 receptor (chicken); assay: competition for [125I]Ang IV binding, E13 chicken chorioallantoic membranes
[2] = molecular target: embryonic chicken Ang II receptor (chicken); assay: competition for 125I[Sar1Ile8]Ang II binding, E13 chicken chorioallantoic membranes
Sequence of embryonic chicken Ang II receptor (chicken) (P79785 whole entry): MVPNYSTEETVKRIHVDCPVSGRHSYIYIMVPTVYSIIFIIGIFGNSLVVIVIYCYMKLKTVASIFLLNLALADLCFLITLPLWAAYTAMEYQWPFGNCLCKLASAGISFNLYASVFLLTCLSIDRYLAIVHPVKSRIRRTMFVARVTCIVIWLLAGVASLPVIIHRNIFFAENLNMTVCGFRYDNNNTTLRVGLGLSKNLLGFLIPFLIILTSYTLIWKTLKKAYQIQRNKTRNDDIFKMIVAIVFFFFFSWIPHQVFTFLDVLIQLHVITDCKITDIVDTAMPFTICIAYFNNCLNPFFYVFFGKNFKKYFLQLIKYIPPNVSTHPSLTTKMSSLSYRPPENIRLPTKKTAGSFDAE

Sequence of embryonic chicken AT4 receptor (chicken) (F1NNE7 entry or part of it): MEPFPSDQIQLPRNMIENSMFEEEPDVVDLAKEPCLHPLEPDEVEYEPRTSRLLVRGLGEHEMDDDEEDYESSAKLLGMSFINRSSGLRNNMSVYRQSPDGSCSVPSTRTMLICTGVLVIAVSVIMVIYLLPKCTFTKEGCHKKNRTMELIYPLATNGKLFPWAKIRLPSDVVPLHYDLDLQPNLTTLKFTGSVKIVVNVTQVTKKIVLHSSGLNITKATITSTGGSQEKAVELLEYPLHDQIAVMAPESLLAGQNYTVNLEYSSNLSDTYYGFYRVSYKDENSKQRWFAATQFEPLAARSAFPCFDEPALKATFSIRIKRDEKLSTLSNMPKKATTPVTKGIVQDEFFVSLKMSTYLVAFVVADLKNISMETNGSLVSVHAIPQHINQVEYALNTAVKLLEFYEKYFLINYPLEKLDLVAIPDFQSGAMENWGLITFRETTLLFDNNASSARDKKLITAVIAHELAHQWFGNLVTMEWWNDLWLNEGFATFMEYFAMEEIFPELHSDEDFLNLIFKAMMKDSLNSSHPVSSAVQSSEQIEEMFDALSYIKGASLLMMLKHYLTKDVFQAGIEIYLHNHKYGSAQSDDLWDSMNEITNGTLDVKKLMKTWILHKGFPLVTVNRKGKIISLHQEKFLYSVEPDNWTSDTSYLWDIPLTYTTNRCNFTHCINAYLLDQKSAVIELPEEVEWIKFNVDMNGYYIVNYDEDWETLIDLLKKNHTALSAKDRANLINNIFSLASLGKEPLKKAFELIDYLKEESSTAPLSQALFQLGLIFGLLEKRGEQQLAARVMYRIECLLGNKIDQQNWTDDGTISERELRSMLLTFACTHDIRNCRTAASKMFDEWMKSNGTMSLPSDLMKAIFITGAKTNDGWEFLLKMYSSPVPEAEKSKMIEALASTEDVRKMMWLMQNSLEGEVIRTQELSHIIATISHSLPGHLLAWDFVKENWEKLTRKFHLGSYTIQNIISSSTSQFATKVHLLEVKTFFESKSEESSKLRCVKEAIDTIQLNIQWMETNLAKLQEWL

Q: With [Nle]YIHPF [Nle^1-AIV] as the binder, how does the IC50 [1] read?
A: The IC50 was 0.043 µM.

Q: What about the IC50 [2] of the same binder?
A: Its IC50 is 8 µM.
